The record followed here is patent US20250361321A1 (Memorial Sloan Kettering, published 2025).

Changes are numbered by the printed parent chain.

The target in assay [1] is T1, N30 mutant MUC16-C114-GFP fusion protein expressed on HEK293 cells (HEK293-MUC16mut) (human).
T1 construct: The GFP signal of this line was weaker than that of the WT line (26x against 170x MFI increase); also called MUC16c114 N30A; not shown: GFP fusion partner
T1 chain: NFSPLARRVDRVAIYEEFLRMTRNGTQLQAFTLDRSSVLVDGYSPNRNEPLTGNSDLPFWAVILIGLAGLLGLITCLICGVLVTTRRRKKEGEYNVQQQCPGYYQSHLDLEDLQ
The experiment in a line: FACS, scFv phage on HEK293-MUC16mut cells. Here is the method: (§1) 540 phage clones identified from the cell panning were then tested by FACS analysis for binding to HEK293-MUC16WT cells. Briefly, 0.2 million cells (in PBS+5% FBS+0.05% NaN₃) were incubated for 2 h at 4° C. with 50 μl of ˜[…] pfu/mL phage in PBS. FACS was carried out using primary antibody mouse anti-M13 mAb (Thermo #MAI-12900) and secondary antibody PE anti-mouse IgG (Vectors Lab #EI-2007).
(§2) The 40 MUC16 specific clones were tested for their binding to HEK293-MUC16WT. HEK293-MUC16mut, and parental HEK293 cells. […] These clones were thus specific for the N-glycosylation site (N30).
(In general: In flow cytometry, cells or beads pass a laser one at a time.)

For assay [2], the target named is T2, wildtype MUC16-C114-GFP fusion protein expressed on HEK293 cells (HEK293-MUC16WT) (human).
T2 construct: not shown: GFP fusion partner
T2 chain: T1 chain with A30N
The experiment in a line: FACS, scFv phage on HEK293-MUC16WT cells (FIG. 5). Here is the method:
as §1, §2

The target in assay [3] is T3, human MUC16 as expressed on MUC16+ cancer cell lines (OVCAR3, SKOV8, OVCA432) (human).
T3 construct: This is endogenous MUC16 on ovarian cancer cell lines; also called hMUC16; Mucin-16
As to the kind of experiment: FACS on MUC16+ OVCAR3 cells, BsAb followed by a secondary antibody, against secondary antibody alone. Here is the method: In this example, the specificity of the anti-MUC16 BsAbs for binding to cancer cells that express MUC16 was assessed. In one study, two target cell lines were employed, a MUC16⁺ OVCAR3 cell line and a MUC16 SKOV3 cell line. OVCAR3 and SKOV3 cell lines were obtained through the American Type Culture Collection (ATCC®, Manassas, VA) and sustained in culture according to the ATCC® literature. FACS analysis of anti-MUC16 antibody binding to the two target cell lines was performed to confirm that antibody binding was observed only with the MUC16+ OVCAR3 cell line. SKOV3 or OVCAR3 cell lines were incubated with the anti-MUC16 Ab followed by a secondary antibody or with a secondary antibody alone as a control.

B1: anti-MUC16 clone 12 scFv antibody phage clone (scFv)
scFv: NFMLTQPHSVSESPGKTVTISCTRSRGSIASAYVQWYQQRPGSAPITVIYEDYERPSEIPDRFSGSIDSSSNSASLTISGLKTEDEADYYCQSYDDNDHVIFGGGTKVTVLGSRGGGGSGGGGSGGGGSLEMAQVQLQQWGAGLLKPSETLSLTCAVYGGSFSGYYWSWIRQPPGKGLEWIGEINHSGSTNYNPSLKSRIIMSVDTSKRQFSLKLRSATAADTAVYYCARWSPFSYKQMYDYWGQGTLVTVSS
notes: The phage coat fusion is not described
Take B1: the binding result in assay [1] was “no binding”; in assay [2] it was “binds”.

B2: anti-MUC16 clone 8 scFv antibody phage clone (scFv)
scFv: DIQLTQSPSAVSASVGDRVTITCRASQDVSKWLAWYQQKPGKAPRLLISAASGLQSWVPSRFSGSGSGTEFTLSISSLQPEDFATYYCQQANSFPWTFGQGTKVEIKRSRGGGGSGGGGSGGGGSLEMAQVQLQQWGAGLLKPSETLSLTCAVYGGSFSGYYWSWIRQPPGKGLEWIGEINHSGSTNYNPSLKSRVTISVDTSKNQFSLKLSSVTAADTAVYYCARQSYITDSWGQGTLVTVSS
notes: as for B1
As for B2, the binding result is listed as “no binding” in assay [1] and “binds” in assay [2].

B3: anti-MUC16 clone 8 BsAb (Clone 8/anti-CD3 bispecific antibody) (bispecific antibody)
chain: DIQLTQSPSAVSASVGDRVTITCRASQDVSKWLAWYQQKPGKAPRLLISAASGLQSWVPSRFSGSGSGTEFTLSISSLQPEDFATYYCQQANSFPWTFGQGTKVEIKRSRGGGGSGGGGSGGGGSLEMAQVQLQQWGAGLLKPSETLSLTCAVYGGSFSGYYWSWIRQPPGKGLEWIGEINHSGSTNYNPSLKSRVTISVDTSKNQFSLKLSSVTAADTAVYYCARQSYITDSWGQGTLVTVSSTSGGGGSDVQLVQSGAEVKKPGASVKVSCKASGYTFTRYTMHWVRQAPGQGLEWIGYINPSRGYTNYADSVKGRFTITTDKSTSTAYMELSSLRSEDTATYYCARYYDDHYCLDYWGQGTTVTVSSGEGTSTGSGGSGGSGGADDIVLTQSPATLSLSPGERATLSCRASQSVSYMNWYQQKPGKAPKRWIYDTSKVASGVPARFSGSGSGTDYSLTINSLEAEDAATYYCQQWSSNPLTFGGGTKVEIKHHHHHH
notes: It was secreted from CHO cells; also called clone 8 bispecific antibody; anti-MUC16 clone & BsAb
B3: the “MFI increase in binding over the control cells” value in assay [3] is ~300 × (fold MFI).
